The text below walks through data of doi:10.1101/2025.11.16.688667.

The assay addresses Rabbit skeletal actin (actin filaments) (rabbit) (UniProt P68135). Kind of assay: high-speed atomic force microscopy.

For the substance “Recombinant human alpha-actinin-1 ABD-E235K (from UniProt P12814 1-892) (domain or fragment)”, the dwell time at 1 uM ABD-E235K is 0.39 s, the dwell time at 2 uM ABD-E235K was 0.4 s and the dwell time at 3 uM ABD-E235K is 0.51 s.
